Kd data for 2 molecules are collected here from patent US20200140551A1 (GlaxoSmithKline, published 2020).

In one experiment the target is T1, cynomolgus ICOS (cynomolgus, UniProt A0A2K5TQR6 21-140).
T1 construct: also called cyno ICOS; not shown: Carrier of the soluble construct, if any
T1 sequence: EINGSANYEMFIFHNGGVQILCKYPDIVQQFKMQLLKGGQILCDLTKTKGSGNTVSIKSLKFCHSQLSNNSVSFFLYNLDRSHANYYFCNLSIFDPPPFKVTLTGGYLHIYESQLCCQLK
Nature of the experiment: Biacore (SPR), cyno ICOS; format not described. For orientation: SPR reads the build-up and loss of mass on a sensor chip optically.

The next experiment deals with T2, human ICOS (human, UniProt Q9Y6W8 21-140, limits assumed).
T2 sequence: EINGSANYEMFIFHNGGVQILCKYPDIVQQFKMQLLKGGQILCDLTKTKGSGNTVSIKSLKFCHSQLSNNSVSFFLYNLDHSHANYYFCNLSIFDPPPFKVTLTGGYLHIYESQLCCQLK
As to the kind of experiment: Biacore (SPR), human ICOS; format not described.

B1: murine anti-human ICOS mAb clone 88.2 (antibody, V domains shown)
VH: QVQLQQPGAELVRPGASVKLSCKASGYSFTSYWINWVKQRPGQGLEWIGNIYPSDSYTNYNQMFKDKATLTVDKSSNTAYMQLTSPTSEDSAVYYCTRWNLSYYFDNNYYLDYWGQGTTLTVSS
VL: QAVVTQESALTTSPGETVTLTCRSSTGAVTTSNYANWVQEKPDHLFTGLIGGTNNRAPGVPARFSGSLIGDKAALTITGAQTEDEAIYFCALWYNNHLVFGGGTKLTVL
Turning to B1, the dissociation constant (Kd) (commonly the equilibrium constant for the complex coming apart) in the experiment with cynomolgus ICOS was found to be 0.023 µM; with human ICOS, 0.031 µM.

B2: murine anti-human ICOS mAb clone 422.2 (antibody, V domains shown)
VH: QVQLQQSGPELVRPGESVKISCMGSGYTFTDYAMHWVKQSHAKSLEWIGLISIYSDHTNYNQKFQGKATMTVDKSSSTAYMELARLTSEDSAIYYCGRNNYGNYGWYFDVWGAGTTVTVSS
VL: ENVLTQSPAIMSASPGEKVTMTCSASSSVSYMHWYQQKSITSPKLWIYDTSKLASGVPGRFSGSGSGNSYSLTISSMEAEDVATYYCFQGSGYPYTFGGGTKLEIKR
notes: also called hybridoma clone 422.2
B2: the Kd was found to be 0.00446 µM in the experiment with cynomolgus ICOS and 0.0057 µM in the experiment with human ICOS.
